Results from the supplement of paper PMC10567573.
± gives the standard deviation.

Experiment: protein stability index of a GFP-peptide fusion (GPS, HEK-293T) (PSI 1-6); higher = more stable
Settings: c terminus: a fixed tail appended
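Note: 24-mer peptide tiles fused after GFP, lentivirally expressed, FACS-sorted into six equal bins by GFP/DsRed ratio, decoded by Illumina sequencing, PSI is the read-weighted mean bin number.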

Sequence	protein stability index (treatment: DMSO)	protein stability index (treatment: MLN4924 1 uM, 8 h)
VESLKRFCASTRLPPTPLLLFPEE [AUP1]	2.81 ± 0.35	3.01 ± 0.35
TMNRRVCVLMLLAAWIGGFLHSLV [OR4A15]	2.53 ± 0.36	2.18 ± 0.24
DLPVVQGSSSFSLKGYPSLMRSQS [TRIM29]	3.03 ± 0.25	3.3 ± 0.24
DSSWYEPSAELVQTRMAVSLTAAE [ZNF232]	4.26 ± 0.068	4.37 ± 0.29
LEVPAGSRLNLTGLGYFSCHSHTV [CCDC3]	2.57 ± 0.33	2.2 ± 0.25
VIFQREQESKNQVHRRGEYNVYST [PPP2R2B]	3.06 ± 0.14	3.04 ± 0.23
LGDRDRSRAALVCRKWNQMMYSAE [FBXO39]	2.72 ± 0.21	2.79 ± 0.17
STDIGALMYPSYTFSGDVQLAQDD [MMP1]	4.9 ± 0.13	4.74 ± 0.28
LRSARGSRGGTRGWLPSHEGHLDD [RBMY1A1]	4.7 ± 0.35	4.78 ± 0.17
YPDAEDPQLGLDGPGEPDVRDGFS [PSD2]	5.51 ± 0.31	5.46 ± 0.084
ILKLEQENCTLVTTFRGHTGGVTA [WDFY2]	2.79 ± 0.13	3.51 ± 0.5
RQIQEEEDEKQRLQNEVRQLTEKL [SSNA1]	4.98 ± 0.19	5.04 ± 0.21
PLPESLASLHPSVSPGSPPPPLPN [PLAGL1]	5.01 ± 0.27	4.95 ± 0.16
LEGLNLSILKAMGKTKKDYQEASN [NECAB1]	3.78 ± 0.14	3.91 ± 0.22
IEFNPRIGKWFDFKLFFNGRPGIV [DHCR7]	2.63 ± 0.44	2.91 ± 0.91
AFADRDQSERQRHESQQLATETQA [TEKT4]	5.11 ± 0.16	5.36 ± 0.31
SPSGAALPLPLSLAPPPLPLPAAA [ZBTB22]	3.92 ± 0.25	4.2 ± 0.29
AAAGLHASPMSADRVVAFMDHIRI [NR2F2]	2.25 ± 0.4	2.26 ± 0.34
GTIRPVRCPSSSLHMSQRERTWPP [C22orf15]	3.77 ± 0.098	3.75 ± 0.17
LELLEEVLALGLRTDVGITHQHWQ [RSAD1]	2.3 ± 0.72	2.13 ± 0.23
VISVVSYLILALLSVTISFRIYKS [RTN3]	3.21 ± 0.65	2.8 ± 0.29
FELALQLAEMKDDSDSEKQQQIHH [VPS39]	4.76 ± 0.17	4.8 ± 0.12

Sequence	protein stability index (treatment: DMSO)	protein stability index (treatment: MLN4924 1 uM, 8 h)
RTLASGRLLSYRGERVAARGYWGD [DNAAF3]	2.96 ± 0.17	3.08 ± 0.19
AHRGRLNIQAGINENDFYDGAWCA [CPXM2]	3.34 ± 0.86	3.29 ± 0.46
KRRPKREKHPKKPEPQQKAPLVPP [SRPK2]	4.948 ± 0.035	4.99 ± 0.19
TKVRKQEIIKVTEQLIEAISNGDF [CAMK2A]	2.38 ± 0.32	2.66 ± 0.42
QTVTVEEAAGGESALAPSVFKQAK [MAP2]	5.21 ± 0.32	5.38 ± 0.45
KNKMMVCQVGGIEALVRTVLRAGD [CTNNB1]	2.51 ± 0.45	2.22 ± 0.21
QETVLVEERRVVHASGDASYSAGD [EPB41L3]	5.28 ± 0.2	5.38 ± 0.24
NETVNSIFAQGAPRSSLAESFFVD [ADAMTSL2]	3.77 ± 0.086	3.86 ± 0.073
FCPLSLWRWQLYAAQSTKSPWNFL [CLPTM1]	2.66 ± 0.62	2.9 ± 0.51
LGKGAFSVVRRCVKVLAGQEYAAK [CAMK2A]	2.61 ± 0.4	2.38 ± 0.61
AKLVPSEREASPSNSCQDSTDTES [IKZF1]	5.41 ± 0.41	5.53 ± 0.24
GALLAPIRVLLAFIVLFLLWPFAW [LPCAT4]	2.68 ± 0.51	2.67 ± 0.54
SREMLQQSKILKVIRKNIVKKCLE [HSP90AB1]	2.56 ± 0.31	2.42 ± 0.57
SLHVDDRERMELLEEAKKMEMAKF [RIPK4]	4.92 ± 0.42	4.76 ± 0.15
RYMLTRDYLTVKVWDLNMEARPIE [PPP2R2C]	2.51 ± 0.3	2.37 ± 0.24
SFRKFRYGYNNVVTIPAGATHILV [ADAMTS4]	2.64 ± 0.28	2.99 ± 0.51
PPEQGKIFIARRSLLDELLEVDHI [SOAT1]	2.76 ± 0.2	2.93 ± 0.32
ESAGPSRAVRQSVTSFPDADAFHH [EMD]	4.33 ± 0.86	4.44 ± 0.18
PAGAGPSPTFPALGIGMDSCVIPL [SEPHS2]	3.14 ± 0.43	3.26 ± 0.34
SLGQMKELGVIFYNCSCLVLDLQR [PLD5]	2.44 ± 0.64	2.93 ± 0.48
ALFKANRLEKAVAAAYTFLQRNPK [P3H4]	2.48 ± 0.27	2.12 ± 0.53
DHYAAIKKAWDDLKKYLEPRCPRM [FBXO3]	2.55 ± 0.22	2.69 ± 0.064

Sequence	protein stability index (treatment: DMSO)	protein stability index (treatment: MLN4924 1 uM, 8 h)
YGHCTAGGEGVEVELLHNTSYTRQ [SCNN1D]	3.71 ± 0.22	3.8 ± 0.25
VGKSEILESLQDGAAESPYSHLGG [RAB40A]	4.56 ± 0.27	4.46 ± 0.19
TNTRRGSRAPCKVQGLEGIKMAMV [NEK8]	2.32 ± 0.25	2.32 ± 0.23
HFDATRGWLLTSGTDKVIKLWDMT [WDFY2]	2.43 ± 0.3	2.78 ± 0.41
VEVDENAYRCGSGMQMAEDSKSLK [NET1]	4.98 ± 0.26	4.99 ± 0.31
DYRGPDCRYLNFTKGEEISVYVKL [MIA2]	2.45 ± 0.53	2.81 ± 0.95
WAPASEGLKPGPEDGPGKEEAPEL [SERTAD1]	5.5 ± 0.2	5.46 ± 0.41
ETSVVAQFGIKDVFDNAIRAALIS [RHOBTB2]	2.28 ± 0.19	2.38 ± 0.38
EFFSANAISDQLLGAGSDLKDFTL [ADAMTSL2]	2.97 ± 0.26	3.22 ± 0.42
QCLEDLVNHYSEVADGLCCVLTTP [SLA]	2.11 ± 0.39	2.27 ± 0.36
EPDLRHLVLVVNTLRRIQASMAPA [SERTAD1]	2.66 ± 0.11	2.51 ± 0.14
VSRRTSEACMTHLHYKWIPVEDSH [DUSP5]	3.04 ± 0.34	3.08 ± 0.21
SPFSGSLHAPPAFYSTSSGLANGL [VENTX]	2.89 ± 0.048	2.96 ± 0.17
HDVRLNGSAAGHVLVKDNGLGCKD [TENT5C]	4.88 ± 0.38	4.92 ± 0.16
DSFPEGPERLHAIKEQLIQEGLLD [HDAC6]	4.94 ± 0.49	4.76 ± 0.27
IDYYTETKILQERAVLGANDPEKN [NSDHL]	4.76 ± 0.22	5.02 ± 0.46
MAVRLAGGLQKMVALLNKTNVKFL [CTNNB1]	2.871 ± 0.006	2.63 ± 0.76
NRDSSMKLSFRARAYGFRGPGPQL [CHGA]	2.44 ± 0.28	2.47 ± 0.42
HALGSPEKVKACQGQYETIERLRS [TBC1D10A]	4.03 ± 0.21	3.88 ± 0.3
IAKHLKGRLGKQCRERWHNHLNPE [MYBL2]	2.25 ± 0.21	2.23 ± 0.13
EVKPKDIIHVVKDQLIGQGIIVKD [TENT5D]	3.52 ± 0.066	3.73 ± 0.25
